In patent US20140356285A1, “COMPOSITIONS AND METHODS RELATED TO TISSUE TARGETING” (THE BOARD OF REGENTS OF THE UNIVERSITY OF TEXAS SYSTEM, priority 2011, published 2014):
No end group written: not given here. *: point of attachment. Biotin = O=C1N[C@H]2[C@H](CS[C@H]2CCCCC(=O)*)N1

B2: human leukocyte proteinase-3 (PR-3) (enzyme)
chain: IVGGHEAQPHSRPYMASLQMRGNPGSHFCGGTLIHPSFVLTAPHCLRDIPQRLVNVVLGAHNVRTQEPTQQHFSVAQVFLNNYDAENKLNDILLIQLSSPANLSASVTSVQLPQQDQPVPPHGTQCLAMGWGRVGAHDPPAQVLQELNVTVVTFFCRPHNICTFVPRRKAGICCFGDSGGPLICDGIIQGIDSFVIWGCATRLFPDFFTRVAYDWIRSTLR
notes: In the ELISAs the PR-3 was bought (Sigma); also called active PR-3; endogenous PR-3

Legend:
[1] = system: cells of mouse WAT vasculature; details: previous research (Kolonin et al., 2004); cited from earlier work
[2] = target: T1, prohibitin (Homo sapiens, UniProt P35232); assay: Phage binding assay on immobilized prohibitin; details: increasing concentrations of synthetic peptide (FIG. 3B)
T1 construct: gift from Dr. Srikumar Chellappan (H. Lee Moffitt Cancer Center & Research Institute)
T1 sequence (P35232 1-272): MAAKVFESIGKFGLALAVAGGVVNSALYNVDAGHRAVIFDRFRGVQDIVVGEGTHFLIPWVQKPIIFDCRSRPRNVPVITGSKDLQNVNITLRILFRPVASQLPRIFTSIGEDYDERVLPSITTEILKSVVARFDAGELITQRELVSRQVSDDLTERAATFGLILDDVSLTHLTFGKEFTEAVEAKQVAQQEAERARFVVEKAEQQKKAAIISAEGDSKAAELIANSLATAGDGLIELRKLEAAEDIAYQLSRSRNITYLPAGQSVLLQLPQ
Procedure: (§1) Phage Binding Assays. Binding of targeted phage to immobilized candidate receptors was evaluated as described (Kolonin et al., 2006b). Micro-wells of 96-well plates were blocked with phosphate-buffered saline (PBS) containing 3% BSA, washed, and incubated with 10^9 TU of targeted phage. Inhibition of phage binding was performed in the presence of increasing concentrations of synthetic peptides, as indicated. For phage display screening on immobilized prohibitin, 10^9 TU of phage clones recovered from the second round of in vivo selection were incubated ON with 1 μg of immobilized recombinant GST-prohibitin. Bound phage were recovered by infection of host bacteria (E. coli K91 Kan).

[3] = target: T2, PR-3 (Homo sapiens, UniProt P24158); assay: Phage binding competition assay, targeted phage and cognate synthetic peptide; details: FIG. 4E
T2 construct: purchased Sigma
T2 sequence (P24158 28-248 limits assumed): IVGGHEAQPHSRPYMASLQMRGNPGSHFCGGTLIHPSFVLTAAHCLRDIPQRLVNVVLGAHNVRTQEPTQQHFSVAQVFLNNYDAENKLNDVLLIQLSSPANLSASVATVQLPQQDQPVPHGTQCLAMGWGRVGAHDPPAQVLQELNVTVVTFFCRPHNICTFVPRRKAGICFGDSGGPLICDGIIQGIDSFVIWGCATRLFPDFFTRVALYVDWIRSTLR
Procedure: as §1

[4] = target: T3, ANXAS (Homo sapiens, UniProt P08758); assay: Capture of GST-prohibitin with immobilized control His6-ANXAS; format: binding; details: recombinant GST-conjugated protein (FIG. 3E)
T3 construct: purchased AmProx
T3 sequence (P08758 1-320): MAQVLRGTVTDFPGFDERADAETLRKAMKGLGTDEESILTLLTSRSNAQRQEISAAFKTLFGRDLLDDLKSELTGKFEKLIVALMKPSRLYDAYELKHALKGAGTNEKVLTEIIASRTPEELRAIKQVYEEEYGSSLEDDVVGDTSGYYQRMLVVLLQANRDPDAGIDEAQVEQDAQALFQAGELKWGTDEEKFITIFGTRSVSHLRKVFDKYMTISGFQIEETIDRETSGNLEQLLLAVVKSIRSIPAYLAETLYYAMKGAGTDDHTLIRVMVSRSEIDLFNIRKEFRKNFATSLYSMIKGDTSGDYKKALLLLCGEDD
Procedure: (§2) Protein Binding Assays. Titration of anti-peptide antibodies was performed on Maxisorb Immunoplates (Nunc) coated with 1 μg/mL of peptides or proteins. Incubation with primary antibodies was followed by signal detection with goat anti-rabbit HRP-conjugated IgG (Sigma-Aldrich; St. Louis, Mo.) and 3, 3′,5,5′-tetramethylbenzidine (TMB) (Calbiochem). To evaluate protein-protein interactions, the inventors performed ELISA on 96-well plates coated with 1 μg/mL of recombinant candidate receptors, as indicated. Blocking of exposed non-specific binding sites was performed with PBS containing either 2% gelatin or 1% BSA, as indicated. Ligand candidates were added to the wells at different concentrations, as indicated. Specific binding was detected by incubation with appropriate primary and secondary antibodies. For capture experiments, immobilized His6-ANXA2 and ANXAS were incubated with recombinant GST-prohibitin. Protein interaction, assessed by immunoblotting with anti-GST antibody, was detected with anti-rabbit or anti-goat secondary alkaline phosphatase-conjugated polyclonal antibodies.

[5] = target: T4, ANXA2 (Homo sapiens, UniProt P07355); assay: Capture of GST-prohibitin with immobilized His6-ANXA2; format: binding; details: recombinant GST-conjugated protein (FIG. 3E)
T4 construct: purchased AmProx
T4 sequence (P07355 whole entry): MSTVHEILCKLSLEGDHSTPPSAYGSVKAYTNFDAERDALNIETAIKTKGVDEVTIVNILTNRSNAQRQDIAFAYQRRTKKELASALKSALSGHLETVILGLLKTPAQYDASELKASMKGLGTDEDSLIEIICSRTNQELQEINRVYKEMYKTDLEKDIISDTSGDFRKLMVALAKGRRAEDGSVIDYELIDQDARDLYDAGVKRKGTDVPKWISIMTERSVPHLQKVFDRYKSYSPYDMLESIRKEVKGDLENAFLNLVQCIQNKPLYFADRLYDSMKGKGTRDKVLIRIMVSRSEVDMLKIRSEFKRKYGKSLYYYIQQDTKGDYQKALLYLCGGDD
Procedure: as §2

[6] = target: T5, His6-ANXA5 (UniProt P08758 1-320, limits assumed); assay: capture of GST-prohibitin on immobilized His6-annexin, immunoblot with anti-GST antibody
T5 construct: also called ANXAS (so in the source); control His6-ANXAS; not shown: His6 tag
T5 sequence (looked up): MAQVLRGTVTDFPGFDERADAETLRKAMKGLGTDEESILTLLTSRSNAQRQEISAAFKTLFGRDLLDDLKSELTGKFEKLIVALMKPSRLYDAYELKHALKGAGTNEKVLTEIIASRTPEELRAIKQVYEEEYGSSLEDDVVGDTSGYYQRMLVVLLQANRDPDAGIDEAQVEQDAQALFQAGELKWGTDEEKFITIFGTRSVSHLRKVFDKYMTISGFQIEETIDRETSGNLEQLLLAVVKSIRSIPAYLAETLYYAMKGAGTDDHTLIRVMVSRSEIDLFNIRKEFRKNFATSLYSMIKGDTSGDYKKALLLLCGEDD

[7] = target: T6, BMPRIA-Fc (UniProt P36894 24-152); assay: ELISA on immobilized PR-3
T6 construct: Bought (R&D Systems); control protein; also called Fc-BMPRIA; not shown: Fc tag
T6 sequence (P36894 24-152): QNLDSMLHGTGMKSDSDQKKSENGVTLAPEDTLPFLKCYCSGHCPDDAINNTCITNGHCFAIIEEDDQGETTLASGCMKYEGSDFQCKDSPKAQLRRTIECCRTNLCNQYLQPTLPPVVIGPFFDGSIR

[8] = target: T7, BSA (bovine, UniProt P02769 25-607); assay: ELISA on immobilized PR-3
T7 construct: Control protein added to immobilized PR-3; also called bovine serum albumin; control protein
T7 sequence (P02769 25-607 limits assumed): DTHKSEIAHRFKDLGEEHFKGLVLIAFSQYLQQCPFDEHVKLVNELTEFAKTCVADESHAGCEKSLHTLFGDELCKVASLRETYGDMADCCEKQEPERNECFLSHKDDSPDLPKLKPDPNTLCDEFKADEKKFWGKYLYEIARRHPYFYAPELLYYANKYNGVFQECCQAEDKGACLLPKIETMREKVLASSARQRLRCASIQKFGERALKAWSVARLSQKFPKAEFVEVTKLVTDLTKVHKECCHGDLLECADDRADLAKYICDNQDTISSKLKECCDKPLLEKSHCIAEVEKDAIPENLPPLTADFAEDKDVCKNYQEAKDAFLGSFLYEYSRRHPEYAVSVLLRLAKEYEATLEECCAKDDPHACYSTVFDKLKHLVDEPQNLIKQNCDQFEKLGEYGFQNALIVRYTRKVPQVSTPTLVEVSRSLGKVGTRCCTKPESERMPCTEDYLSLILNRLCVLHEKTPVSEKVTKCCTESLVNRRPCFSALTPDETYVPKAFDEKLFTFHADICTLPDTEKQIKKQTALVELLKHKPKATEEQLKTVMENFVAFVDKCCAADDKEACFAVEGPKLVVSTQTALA

[9] = target: B2; assay: affinity capture on monoavidin beads loaded with biotinylated peptide, from a membrane extract of human bone marrow cells; SDS-PAGE
Excerpt: (B) Liquid chromatography-mass spectrometry (LC-MS/MS) of peptides matching the candidate receptor PR-3. Peptides identified are underlined. […] Arrow: ˜35 kDa band specific to the RAGE-like peptides.

CKGGRAKDC
localization and internalization in WAT vasculature [1]: localized to and internalized by cells of mouse WAT vasculature
inhibition of CKGGRAKDC-displaying phage binding to prohibitin by synthetic peptide [2]: specifically inhibited in a concentration-dependent manner

CWELGGGPC
inhibition of CWELGGGPC-phage binding by synthetic peptide [3]: specifically inhibited

prohibitin: recombinant glutathione S-transferase (GST)-conjugated prohibitin
binding of prohibitin to control protein ANXAS [4]: not to the control protein ANXAS
binding of prohibitin to ANXA2 [5]: binds to ANXA2

B1: GST-prohibitin (other, UniProt P35232 1-272, looked up)
chain: MAAKVFESIGKFGLALAVAGGVVNSALYNVDAGHRAVIFDRFRGVQDIVVGEGTHFLIPWVQKPIIFDCRSRPRNVPVITGSKDLQNVNITLRILFRPVASQLPRIFTSIGEDYDERVLPSITTEILKSVVARFDAGELITQRELVSRQVSDDLTERAATFGLILDDVSLTHLTFGKEFTEAVEAKQVAQQEAERARFVVEKAEQQKKAAIISAEGDSKAAELIANSLATAGDGLIELRKLEAAEDIAYQLSRSRNITYLPAGQSVLLQLPQ
notes: Gift from Dr. Srikumar Chellappan; also called recombinant GST-prohibitin; glutathione S-transferase (GST)-conjugated protein; not shown: glutathione S-transferase (GST) tag
binding result [6]: no binding

B2
binding result [7]: no binding
binding result [8]: no binding

B3: negative control peptide CARAC (peptide)
peptide: Biotin-CARAC
modifications: also: cyclized, type and places not given here
notes: Negative control on monoavidin beads; also called control elution peptide
binding result [9]: no binding
